Laboratory results taken from patent publication US5733874A, “Stable dry powders” (Novartis Corp., priority 1994, dated 1998).

Test: RP-HPLC chromatogram of recombinant hirudin HV1 in water (FIG. 1)
Assay type: physicochemical
Settings: 1 mg/ml hirudin in water
Procedure: RP-HPLC method: A LiChroCART 125-4 column is used (Merck LiChrospher 100 RP-18 5pm). Solvent A is 0.5% ammoniumacetate in acetonitrile/water (10:90), (v:v); solvent B is 0.5% ammoniumacetate in acetonitrile/water (25:75). The elution is performed at 45° C. using a flow rate of 0.5 ml/min. The binary elution is a linear gradient starting at time zero with 23% solvent B and reaching 46% solvent B after 24 minutes. After 2 min at 70% solvent B the column is equilibrated for 7 rain at 23% solvent B.
A typical chromatogram of recombinant hirudin HV1 (CGP 39393) in water using the RP-HPLC (1 mg/ml hirudin) method is shown in FIG. 1.
In FIG. 1, the relative area of the main peak is 95.15%. Storage of hirudin in water at room temperature results in an increase of by products with time. […] The changes which occur can be accelerated by using temperature stress experiments i.e. by storage at elevated temperatures.

In the case of desulphatohirudin HV1 [CGP 39393], the “relative area of the main peak” value is reported as 95.15%.
